{
  "source": "patent CN1420129A",
  "about": "(ZHONGXIN GUOJIAN PHARMACEUTICA, dated 2003)",
  "assay_in_all_cases": "cell-based or functional assay",
  "key": {"[1]": {"biological_target": "CD20 (on CD20+ B lymphocytes / human B lymphoma cell line DHL-4) (human) (UniProt P11836)"}, "[2]": {"biological_target": "CD20 (on CD20+ B lymphocytes / human B lymphoma cell line DHL-4) (human) (UniProt P11836)", "remark": "listed apart in the source"}, "[3]": {"biological_target": "T1, CD20 (on CD20+ B lymphocytes / human B lymphoma cell line DHL-4) (human, UniProt P11836 1-297)", "T1 sequence (looked up)": "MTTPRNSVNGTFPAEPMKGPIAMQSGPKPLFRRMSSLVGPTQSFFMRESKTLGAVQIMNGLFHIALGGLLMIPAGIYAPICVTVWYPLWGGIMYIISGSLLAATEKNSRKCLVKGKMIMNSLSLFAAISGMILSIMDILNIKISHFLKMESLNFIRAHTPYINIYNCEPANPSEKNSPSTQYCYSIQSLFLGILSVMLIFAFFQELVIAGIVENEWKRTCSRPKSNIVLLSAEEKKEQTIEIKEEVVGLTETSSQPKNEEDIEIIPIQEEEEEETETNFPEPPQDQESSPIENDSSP"}},
  "note": "Where two headings read alike, the source gives them in different places.",
  "data": [
    {"molecule": "Rituximab (antibody)", "values": [
      {"measurement": "存活细胞% (DHL-4 CD20+ cells, cell count and MTT, day 5-7) at 1 μg/ml (% surviving cells)", "setting": "[1]", "result": 50.3},
      {"measurement": "存活细胞% (DHL-4 CD20+ cells, cell count and MTT, day 5-7) at 10 μg/ml (% surviving cells)", "setting": "[1]", "result": 12.6},
      {"measurement": "存活细胞% (DHL-4 CD20+ cells, cell count and MTT, day 5-7) at 100 μg/ml (% surviving cells)", "setting": "[1]", "result": 29.4},
      {"measurement": "存活细胞% (DHL-4 CD20+ cells, cell count and MTT, day 5-7) at 1 μg/ml (% surviving cells)", "setting": "[2]", "result": 66.7},
      {"measurement": "存活细胞% (DHL-4 CD20+ cells, cell count and MTT, day 5-7) at 10 μg/ml (% surviving cells)", "setting": "[2]", "result": 32.1},
      {"measurement": "存活细胞% (DHL-4 CD20+ cells, cell count and MTT, day 5-7) at 100 μg/ml (% surviving cells)", "setting": "[2]", "result": 19.4}
    ]},
    {"molecule": "单克隆抗体7D3 (antibody, V domains shown) VH: QAQLQQSGAELVRPGASVKMSCKASGYTFTRYNMHWVKQTPRQGLEWIGYIYPGNGDTNYNQKFKGKATLTVDKSSSTAYMQLSSLTSEDSAVYFCARRTYYSNSYWYFDVWGTGTTVTVSS VL: QIVLTQSPAILSASPGEKVTMTCRASSSVSYMNWYQQKPGSSPKPWIYAPSNLASGVPARFSGSGSGTSYSLTISRVEAEDAATYYCQQWSNNPPTFGAGTKLELKR", "values": [
      {"measurement": "存活细胞% (DHL-4 CD20+ cells, cell count and MTT, day 5-7) at 1 μg/ml", "setting": "[3]", "result": 99.6, "unit": "% surviving cells"},
      {"measurement": "存活细胞% (DHL-4 CD20+ cells, cell count and MTT, day 5-7) at 10 μg/ml", "setting": "[3]", "result": 46.5, "unit": "% surviving cells"},
      {"measurement": "存活细胞% (DHL-4 CD20+ cells, cell count and MTT, day 5-7) at 100 μg/ml", "setting": "[3]", "result": 56.7, "unit": "% surviving cells"}
    ]},
    {"molecule": "嵌合单抗C7D3 (antibody, human IgG1, V domains shown) VH: QAQLQQSGAELVRPGASVKMSCKASGYTFTRYNMHWVKQTPRQGLEWIGYIYPGNGDTNYNQKFKGKATLTVDKSSSTAYMQLSSLTSEDSAVYFCARRTYYSNSYWYFDVWGTGTTVTVSS VL: QIVLTQSPAILSASPGEKVTMTCRASSSVSYMNWYQQKPGSSPKPWIYAPSNLASGVPARFSGSGSGTSYSLTISRVEAEDAATYYCQQWSNNPPTFGAGTKLELKR", "values": [
      {"measurement": "存活细胞% (DHL-4 CD20+ cells, cell count and MTT, day 5-7) at 1 μg/ml", "setting": "[3]", "result": 110, "unit": "% surviving cells"},
      {"measurement": "存活细胞% (DHL-4 CD20+ cells, cell count and MTT, day 5-7) at 10 μg/ml", "setting": "[3]", "result": 27.3, "unit": "% surviving cells"},
      {"measurement": "存活细胞% (DHL-4 CD20+ cells, cell count and MTT, day 5-7) at 100 μg/ml", "setting": "[3]", "result": 39.4, "unit": "% surviving cells"}
    ]}
  ]
}
